Source: patent publication US20140199242A1

Target: MUC4 protein (endogenous human MUC4 of pancreatic cancer cells and tumor tissue) (human) (UniProt Q99102)
Experiment: flow cytometry, cell-surface staining of paraformaldehyde-fixed unpermeabilized cells (cell line not given), 1 µg antibody/10^6 cells, FITC anti-mouse secondary

| Substance | MFI (mean fluorescence intensity) |
| --- | --- |
| anti-MUC4 TR MAb 8G7 (antibody) | 23.1 |
| anti-KLH antibody K2G6 | 14.2 |
